# Source: US20220048996A1 (F STAR BETA, published 2022)
# Changes are numbered by the printed parent chain.
# B1: G1AA/FS30-10-16 (antibody, human IgG1, kappa, L234A L235A, V domains shown)
# VH: EVQLLESGGGLVQPGGSLRLSCAASGFTFSSYDMSWVRQAPGKGLEWVSDIDPTGSKTDYADSVKGRFTISRDNSKNTLYLQMNSLRAEDTAVYYCARDLLVYGFDYWGQGTLVTVSS
# VL: EIVLTQSPGTLSLSPGERATLSCRASQSVSSSYLAWYQQKPGQAPRLLIYGASSRATGIPDRFSGSGSGTDFTLTISRLEPEDFAVYYCQQSYSYPVTFGQGTKVEIKR
# B2: FS20-22-49AA/FS30-10 (bispecific antibody, V domains shown)
# VH: B1 VH with L101M
# VL: B1 VL
# notes: Parent mAb^2; derived by reversing the stated change
# B3: FS20m-232-91AA/HEL D1.3 (antibody, V domains shown)
# VH: QVQLQESGPGLVRPSQTLSLTCTVSGSTFSGYGVNWVRQPPGRGLEWIGMIWGDGNTDYNSALKSRVTMLVDTSKNQFSLRLSSVTAADTAVYYCARERDYRLDYWGQGSLVTVSS
# VL: DIQMTQSPASLSASVGETVTITCRASGNIHNYLAWYQQKQGKSPQLLVYNAKTLADGVPSRFSGSGSGTQYSLKINSLQPEDFGSYYCQHFWSTPRTFGGGTKLEIKR
# notes: also called OX40/HEL mock mAb^2
# B4: FS20m-232-91AA/4420 (antibody, human IgG1, kappa, L234A L235A)
# heavy: EVKLDETGGGLVQPGRPMKLSCVASGFTFSDYWMNWVRQSPEKGLEWVAQIRNKPYNYETYYSDSVKGRFTISRDDSKSSVYLQMNNLRVEDMGIYYCTGSYYGMDYWGQGTSVTVSSASTKGPSVFPLAPSSKSTSGGTAALGCLVKDYFPEPVTVSWNSGALTSGVHTFPAVLQSSGLYSLSSVVTVPSSSLGTQTYICNVNHKPSNTKVDKKVEPKSCDKTHTCPPCPAPEAAGGPSVFLFPPKPKDTLMISRTPEVTCVVVDVSHEDPEVKFNWYVDGVEVHNAKTKPREEQYNSTYRVVSVLTVLHQDWLNGKEYKCKVSNKALPAPIEKTISKAKGQPREPQVYTLPPSRDELFDPMYYYNQVSLTCLVKGFYPSDIAVEWESNGEPLWDYKTTPPVLDSDGSFFLYSKLTVWRDRWEDGNVFSCSVMHEALHNHYTQKSLSLSPGK
# light: DVVMTQTPLSLPVSLGDQASISCRSSQSLVHSNGNTYLRWYLQKPGQSPKVLIYKVSNRFSGVPDRFSGSGSGTDFTLKISRVEAEDLGVYFCSQSTHVPWTFGGGTKLEIKRTVAAPSVFIFPPSDEQLKSGTASVVCLLNNFYPREAKVQWKVDNALQSGNSQESVTEQDSKDSTYSLSSTLTLSKADYEKHKVYACEVTHQGLSSPVTKSFNRGEC
# B5: G1/4420 (antibody, human IgG1, kappa)
# heavy: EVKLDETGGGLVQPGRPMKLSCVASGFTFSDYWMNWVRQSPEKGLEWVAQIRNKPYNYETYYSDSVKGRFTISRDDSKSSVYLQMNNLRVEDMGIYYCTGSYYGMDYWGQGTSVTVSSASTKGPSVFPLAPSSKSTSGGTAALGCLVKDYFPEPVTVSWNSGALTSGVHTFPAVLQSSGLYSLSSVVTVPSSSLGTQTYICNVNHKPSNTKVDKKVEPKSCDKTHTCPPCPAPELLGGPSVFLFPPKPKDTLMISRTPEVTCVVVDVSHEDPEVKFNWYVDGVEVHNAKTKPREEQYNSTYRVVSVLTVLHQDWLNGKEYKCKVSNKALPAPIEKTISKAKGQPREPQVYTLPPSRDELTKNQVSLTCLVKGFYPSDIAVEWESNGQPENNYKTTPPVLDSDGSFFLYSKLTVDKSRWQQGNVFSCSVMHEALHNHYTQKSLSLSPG
# light: B4 light
# notes: also called anti-FITC antibody 4420 in IgG1 format; isotype control
# B6: G1AA/OX86 (antibody, human IgG1, kappa, L234A L235A, V domains shown)
# VH: QVQLKESGPGLVQPSQTLSLTCTVSGFSLTGYNLHWVRQPPGKGLEWMGRMRYDGDTYYNSVLKSRLSISRDTSKNQVFLKMNSLQTDDTAIYYCTRDGRGDSFDYWGQGVMVTVSS
# VL: DIVMTQGALPNPVPSGESASITCRSSQSLVYKDGQTYLNWFLQRPGQSPQLLTYWMSTRASGVSDRFSGSGSGTYFTLKISRVRAEDAGVYYCQQVREYPFTFGSGTKLEIKR
# B7: G1/OX86 (antibody, human IgG1, kappa, V domains shown)
# VH: B6 VH with T57I
# VL: B6 VL
# notes: also called G1/0X86; anti-mouse OX40 mAb OX86 in a human IgG1 backbone
# B8: FS20-22-49AA/FS30-35 (bispecific antibody, V domains shown)
# VH: EVQLLESGGGLVQPGGSLRLSCAASGFTFSAYNIHWVRQAPGKGLEWVSDISPYGGATNYADSVKGRFTISRDNSKNTLYLQMNSLRAEDTAVYYCARNLYELSAYSYGMDYWGQGTLVTVSS
# VL: EIVLTQSPGTLSLSPGERATLSCRASQSVSSSYLAWYQQKPGQAPRLLIYGASSRATGIPDRFSGSGSGTDFTLTISRLEPEDFAVYYCQQYYYSSPITFGQGTKVEIKR
# notes: as for B2
# Assays:
# [1] = molecular target: T1, human CD137 expressed on DO11.10 cells (DO11.10-hCD137) (human, UniProt Q07011 24-255); test: cell-based or functional assay
# hCD137-mFc-Avi = molecular target: T2, hCD137-mFc-Avi (human); test: SPR, mAb^2 at 1 nM on CD137 against 1 µM on related receptors
# T2 construct: Dimer; a biotinylated version was used where the text says so; also called human CD137-mFc-Avi; hCD137-mFc-Avi-Bio
# From the text: CD137 and OX40 belongs to the tumour necrosis factor receptor superfamily (TNFRSF) of cytokine receptors (Moran et al., 2013).
# Briefly, flow cells on CM5 chips were immobilised with approx. 1000 RU of either human CD137-mFc-Avi (Table 3), OX40-mFc (Table 2), recombinant human TNFRSF1A-Fc, recombinant human TNFRSF1B-Fc, recombinant human GITR-Fc, recombinant human NGFR-Fc, recombinant human CD40-Fc or recombinant human DR6-Fc. Flow cell 1 was left for blank immobilisation. The five mAb² were diluted to 1 μM and 1 nM in 1×HBS-EP buffer (GE Healthcare, product code BR100188), allowed to flow over the chip for 3 min and then allowed to dissociate for 4 minutes. A 30-second injection of 10 mM glycine pH 1.5 was used for regeneration. […] Binding levels were determined at the end of the association phase and compared.
# [2] = molecular target: T3, mouse CD137 expressed on DO11.10 cells (DO11.10-mCD137) (mouse, UniProt P20334 24-256); test: flow cytometry on DO11.10 cells expressing the target
# T3 construct: also called CD137 on mouse T cells
# Method: (§1) The binding affinity of the FS20m-232-91AA/Lob12.3 mAb² for cell-expressed mouse OX40 and CD137 was determined using flow cytometry. […] DO11.10-mOX40, DO11.10-mCD137, or HEK cell suspensions were prepared in PBS+2% BSA (Sigma, A7906) and seeded at 4×10⁶ cell/ml with 50 μl/well in V-bottomed 96-well plates (Costar, 3897). 50 μl of the antibody dilutions were added to the wells containing cells (final volume 100 μl ) and incubated at 4° C. for 1 hour. […] The plates were washed and resuspended in 100 μl of PBS containing DAPI (Biotium, cat no 40043) at 1 μg/ml. The plates were analysed using a Canto II flow cytometer (BD Bioscience) and the data analysed using FlowJo. Dead cells were identified by their higher fluorescence on the UV (405 nm/450/50) channel and excluded from analysis. […] The GMFI data was fit using log (agonist) vs response (three parameters) in GraphPad Prism Software to generate EC₅₀ values.
# [3] = molecular target: T4, mouse OX40 expressed on DO11.10 cells (DO11.10-mOX40) (mouse, UniProt P47741 20-272); test: cell-based or functional assay
# T4 sequence: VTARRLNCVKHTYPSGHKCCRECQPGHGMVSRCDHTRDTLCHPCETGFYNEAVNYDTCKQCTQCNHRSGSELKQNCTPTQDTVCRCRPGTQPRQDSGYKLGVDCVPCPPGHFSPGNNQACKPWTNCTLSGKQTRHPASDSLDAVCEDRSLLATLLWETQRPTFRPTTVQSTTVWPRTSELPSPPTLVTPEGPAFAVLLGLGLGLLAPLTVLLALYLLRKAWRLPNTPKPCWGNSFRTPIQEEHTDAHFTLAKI
# [4] = molecular target: T5, cynomolgus CD137 expressed on DO11.10 cells (DO11.10-cCD137) (cynomolgus monkey, UniProt Q07011 24-255 (human entry)); test: flow cytometry on DO11.10 cells expressing the target
# T5 chain: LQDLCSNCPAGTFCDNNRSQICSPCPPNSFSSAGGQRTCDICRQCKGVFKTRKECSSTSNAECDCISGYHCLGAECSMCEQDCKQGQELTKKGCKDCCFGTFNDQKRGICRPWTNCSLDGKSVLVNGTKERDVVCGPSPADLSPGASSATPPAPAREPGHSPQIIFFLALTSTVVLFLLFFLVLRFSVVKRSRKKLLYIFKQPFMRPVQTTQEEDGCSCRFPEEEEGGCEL
# Method: (§2) 50 μl of the antibody dilutions were added to the wells containing cells (final volume 100 μl) and incubated at 4° C. for 1 hour. […] The plates were washed and resuspended in 100 μl of PBS containing DAPI (Biotium, cat no 40043) at 1 μg/ml. The plates were analysed using a Canto II flow cytometer (BD Bioscience) and the data analysed using FlowJo. Dead cells were identified by their higher fluorescence on the UV (405 nm/450/50) channel and excluded from analysis. […] The GMFI data was fit using log (agonist) vs response (three parameters) in Graph Pad Prism Software to generate EC₅₀ values.
# [5] = molecular target: T1, human CD137 expressed on DO11.10 cells …; test: as above
# Method: as §2
# [6] = molecular target: T4, mouse OX40 expressed on DO11.10 cells …; test: as above
# Method: as §1
# T3 sequence (P20334 24-256): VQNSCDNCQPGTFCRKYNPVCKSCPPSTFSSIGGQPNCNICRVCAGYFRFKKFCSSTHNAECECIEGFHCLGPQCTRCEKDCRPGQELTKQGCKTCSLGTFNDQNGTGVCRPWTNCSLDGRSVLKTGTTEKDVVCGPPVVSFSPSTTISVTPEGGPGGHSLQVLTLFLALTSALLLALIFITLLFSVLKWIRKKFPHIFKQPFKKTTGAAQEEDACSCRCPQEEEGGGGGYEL
# T2 sequence (chain, as listed by the source limits assumed): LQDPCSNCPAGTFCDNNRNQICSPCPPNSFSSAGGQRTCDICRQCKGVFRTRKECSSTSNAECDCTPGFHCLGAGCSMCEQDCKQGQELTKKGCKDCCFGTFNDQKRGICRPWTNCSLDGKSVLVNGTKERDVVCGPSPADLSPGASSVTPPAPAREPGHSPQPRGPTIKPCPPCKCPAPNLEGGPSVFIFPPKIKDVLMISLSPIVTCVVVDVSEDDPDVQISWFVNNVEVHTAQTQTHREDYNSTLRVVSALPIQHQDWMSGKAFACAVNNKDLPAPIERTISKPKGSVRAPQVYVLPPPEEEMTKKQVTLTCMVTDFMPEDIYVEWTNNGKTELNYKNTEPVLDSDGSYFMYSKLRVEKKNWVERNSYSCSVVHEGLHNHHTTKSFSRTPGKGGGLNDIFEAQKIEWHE
binder,measurement,setting,value
B1,"CD8+ T cell activation assay, hIL-2 release EC50, crosslinked",[1],3.88 nM
B2,"specificity for CD137 over TNFRSF1A, TNFRSF1B, GITR, NGFR and CD40 (fold)",hCD137-mFc-Avi,~1000 fold
B3,binding result,[2],no binding
B4,"mouse pan-T cell activation assay, mIL-2 release EC50, crosslinked",[3],0.257 nM
B5,binding result,[4],no binding
same,binding result,[5],no binding
same,binding result,[2],no binding
same,binding result,[6],no binding
B6,"mouse pan-T cell activation assay, mIL-2 release EC50, crosslinked",[3],2.41 nM
B7,binding result,[2],no binding
same,EC50,[6],0.538 nM
B8,"specificity for CD137 over TNFRSF1A, TNFRSF1B, GITR, NGFR and CD40 (fold)",hCD137-mFc-Avi,~1000 fold
